Data: patent US12127562B2, “Methods and compositions that increase pesticidal activity for FR901228” (PRO FARM GROUP, INC., priority 2020, dated 2024)
In brackets after ≈: the same amount, converted by molar mass. Entries after “also recorded” stand apart in the source; their conditions may differ. Where two headings read alike, the source gives them in different places.

B1: HtpG: Chaperone protein HtpG from Burkholderia rinojensis A396 (SEQ ID No. 1), His-tagged, overexpressed in E. coli (protein)
chain: MTQQTMSFQAEVKQLLHLMIHSLYSNKEIFLRELVSNASDAADKLRFEALENGALYENDPNLRIRIGFDPAARTLTIDDNGIGMSRDEAIANLGTIARSGTKEFFSKLSGDQQKDAALIGQFGVGFYSGFIVADRITVETRRAGLPASEGVRWESGGEGDFSIDAIERAARGTTITLHLREGEDELLSAHRLKSIVRKYSDHVALPILMQQEAWDAEKGEMVAKDEDETVNQASALWTRAKSEITDEQYQQFYQHLAHDHQNPLAWTHNRVEGRSEYTQLLYVPSHAPFDLWNRDYRGGLKLYVKRVFIMDDAEQLLPQYLRFVKGVVDSADLPLNVSREILQESRDVKAIREGVTKRALSMLEELANAEDDAGKEQYRTFWSAFGQVLKEGVGEDQANRERVAKLVRFASTHGGTDAQDVSLADYVARMKPEQTRIYYVTADTWQAATHSPHLEVFRKKGVEVLLLTDRVDEWMLSYLQEFDGKPLASVARGDLDLGALDDAEKKAQEETGEAFKPLVEKMKEALGDKAKDVRVTFRLTDSPSCLVADDHDMSGYLQRMLKAAGQSGPAMQPILEVNPEHPLVKQLQADSPEFGDWCHLLFDQALLAEGGALEDPASFVKRTNTLLLSRAA
modifications: His tag; Burkholderia rinojensis A396
B2: DnaK: Chaperone protein DnaK from Burkholderia rinojensis A396 (SEQ ID No. 2), His-tagged, overexpressed in E. coli (protein)
chain: MGKIIGIDLGTTNSCVAVMEGNQVKVIENSEGARTTPSIIAYMDDNEVLVGAPAKRQSVTNPRNTLFAVKRLIGRRFEEKEVQKDIGLMPYAIIKADNGDAWVEAHGDKLAPPQVSAEVLRKMKKTAEDYLGEPVTEAVITVPAYFNDSQRQATKDAGRIAGLEVKRIINEPTAAALAFGLDKAEKGDRKIAVYDLGGGTFDVSIIEIADVDGEMQFEVLSTNGDTFLGGEDFDQRIIDYIIGEFKKEQGVDLSKDVLALQRLKEAAEKAKIELSSGQQTEINLPYITADASGPKHLNLKITRAKLEALVEELVERTIEPCRIAIKDAGVKVSDIDDVILVGGQTRMPKVLEKVKEFFGKDPRRDVNPDEAVAVGAAIQGQVLSGDRKDVLLLDVTPLSLGIETLGGVMTKMINKNTTIPTKHAQVYSTADDNQGAVTIKVFQGEREMAAGNKLLGEFNLEGIPPAPRGVPQIEVTFDIDANGILHVGAKDKATGKENKITIKANSGLSEAEIDQMIKDAEANAAEDHKLRELADSRNQGDALVHSTKKAVAEYGDKLDAGEKDKIEAALKELEDVLKNTSADKAAIDAKIEALSTASQKLGEKMYADMQAQQAGAAGAAGAAEGAAHGGAQQADDVVDADFKEVKKD
modifications: His tag; Burkholderia rinojensis A396

Test system: Beet army worm (Spodoptera exigua)
Experiment: Beet army worm diet overlay assay (insecticidal activity)
Type: in vivo
Details: for LC50: Spodoptera exigua, MW 540 concentration 50 μg/mL, protein concentration 0 mg/mL; for LC50 (μg/mL MW 540): Table 4, heated, MW 540 concentration 0 μg/mL, protein concentration 5 mg/mL; for insecticidal activity (in words): text summary, compared to MW 540 alone
Text: The present inventors evaluated whether these two proteins can form conjugates with MW 540 and whether the conjugate has the same insecticidal activity as MW 540 alone. One skilled in the art knows that protein purification often uses polyhistidine-tags to assist with the concentration and removal of desired proteins from cellular material. The two protein sequences were cloned into an expression vector (pET26b(+)) and over-expressed in E. coli BL21 cells with a His tag added to the C-terminus of the sequence. In other words, His-tagged HtpG and DnaK from B. rinojensis A396 were overexpressed in E. coli and were purified by immobilized metal ion affinity chromatography.
After mixing MW 540 with HtpG and/or DnaK, heat was applied to the mixture to from disulfide bond conjugates and the end-product was evaluated and its insecticidal activity determined.
Table 1's numbers are expressed as protein concentrations as μg/mL. Subsequently, the insecticidal activity of the end products was evaluated using Beet army worm diet overlay assay known in the art.

| Molecule | LC50 (read-out: LC50 (μg/mL MW 540), Table 2) [µg/mL] | LC50 (read-out: LC50 (μg/mL MW 540), Table 3) [µg/mL] | LC50 (read-out: LC50 (μg/mL MW 540), Table 4, unheated) [µg/mL] | LC50 (μg/mL MW 540) | insecticidal activity (in words) | insecticidal activity (in words) (listed as HtPG) |
| --- | --- | --- | --- | --- | --- | --- |
| C/C=C1\NC(=O)[C@H]2CSSCC/C=C/[C@H](CC(=O)N[C@H](C(C)C)C(=O)N2)OC(=O)[C@H](C(C)C)NC1=O [MW 540, romidepsin, reference compound] | 0.27 (≈ 0.499 µM) | 0.35 (≈ 0.647 µM) | 0.43 (≈ 0.795 µM) |  |  |  |
| B1 |  |  |  | No Activity | did not show insecticidal activity | does not exhibit insecticidal activity |
| B2 |  |  |  | No Activity | does not exhibit insecticidal activity; also recorded: did not show insecticidal activity |  |
